According to US20200165325A1:

Assays:
[1] = target: Env (gp120) of HIV-1 strain 0330.v4.c3 (HIV-1)
[2] = target: Env (gp120) of HIV-1 strain 1056_10_TA11_1826 (HIV-1)
[3] = target: Env (gp120) of HIV-1 strain 211-9 (HIV-1)
[4] = target: Env (gp120) of HIV-1 strain 231965.c01 (HIV-1)
[5] = target: Env (gp120) of HIV-1 strain 3016.v5.c45 (HIV-1)
[6] = target: Env (gp120) of HIV-1 strain 3718.v3.c11 (HIV-1)
[7] = target: Env (gp120) of HIV-1 strain 620345.c01 (HIV-1)
[8] = target: Env (gp120) of HIV-1 strain 62357_14_D3_4589 (HIV-1)
[9] = target: Env (gp120) of HIV-1 strain 6540.v4.c1 (HIV-1)
[10] = target: Env (gp120) of HIV-1 strain 6811.v7.c18 (HIV-1)
[11] = target: Env (gp120) of HIV-1 strain 89-F1_2_25 (HIV-1)
[12] = target: Env (gp120) of HIV-1 strain C1080.c03 (HIV-1)
[13] = target: Env (gp120) of HIV-1 strain C2101.c01 (HIV-1)
[14] = target: Env (gp120) of HIV-1 strain CAAN5342.A2 (HIV-1)
[15] = target: Env (gp120) of HIV-1 strain CNE17 (HIV-1)
[16] = target: Env (gp120) of HIV-1 strain CNE20 (HIV-1)
[17] = target: Env (gp120) of HIV-1 strain Ce0682_E4 (HIV-1)
[18] = target: Env (gp120) of HIV-1 strain Ce2060_G9 (HIV-1)
[19] = target: Env (gp120) of HIV-1 strain Ce703010054_2A2 (HIV-1)
[20] = target: Env (gp120) of HIV-1 strain Du172.17 (HIV-1)
[21] = target: Env (gp120) of HIV-1 strain HIV-16845-2.22 (HIV-1)
[22] = target: Env (gp120) of HIV-1 strain P0402_c2_11 (HIV-1)
[23] = target: Env (gp120) of HIV-1 strain P1981_C5_3 (HIV-1)
[24] = target: Env (gp120) of HIV-1 strain Q23.17 (HIV-1)
[25] = target: Env (gp120) of HIV-1 strain Q461.e2 (HIV-1)
[26] = target: Env (gp120) of HIV-1 strain RHPA4259.7 (HIV-1)
[27] = target: Env (gp120) of HIV-1 strain SC422661.8 (HIV-1)
[28] = target: Env (gp120) of HIV-1 strain T250-4 (HIV-1)
[29] = target: Env (gp120) of HIV-1 strain T255-34 (HIV-1)
[30] = target: Env (gp120) of HIV-1 strain T278-50 (HIV-1)
[31] = target: Env (gp120) of HIV-1 strain WEAU_d15_410_787 (HIV-1)
[32] = target: Env (gp120) of HIV-1 strain WITO4160.33 (HIV-1)
[33] = target: Env (gp120) of HIV-1 strain X1193_c1 (HIV-1)
[34] = target: Env (gp120) of HIV-1 strain X1254_c3 (HIV-1)
[35] = target: Env (gp120) of HIV-1 strain ZM247v1(Rev-) (HIV-1)

Substance | neutralization IC50 [1] [mg/L] | neutralization IC50 [2] [mg/L] | neutralization IC50 [3] [mg/L] | neutralization IC50 [4] [mg/L] | neutralization IC50 [5] [mg/L] | neutralization IC50 [6] [mg/L] | neutralization IC50 [7] [mg/L] | neutralization IC50 [8] [mg/L] | neutralization IC50 [9] [mg/L] | neutralization IC50 [10] [mg/L] | neutralization IC50 [11] [mg/L] | neutralization IC50 [12] [mg/L] | neutralization IC50 [13] [mg/L] | neutralization IC50 [14] [mg/L] | neutralization IC50 [15] [mg/L] | neutralization IC50 [16] [mg/L] | neutralization IC50 [17] [mg/L] | neutralization IC50 [18] [mg/L] | neutralization IC50 [19] [mg/L] | neutralization IC50 [20] [mg/L] | also measured
NIH45-46 IgG (antibody) | 0.09 | 0.094 | > 50 | 0.051 | > 50 | 19.6 | > 50 | 0.06 | > 50 | 0.035 | > 50 | 2.48 | 4.24 | 0.15 | 0.261 | 7.83 | 0.054 | 0.058 | 0.159 | > 50 | neutralization IC50 [21]: 5 mg/L; neutralization IC50 [22]: 0.073 mg/L; neutralization IC50 [23]: 0.08 mg/L; neutralization IC50 [24]: 0.14 mg/L; neutralization IC50 [25]: 0.076 mg/L; neutralization IC50 [26]: 0.017 mg/L; neutralization IC50 [27]: 0.06 mg/L; neutralization IC50 [28]: > 50 mg/L; neutralization IC50 [29]: 0.71 mg/L; neutralization IC50 [30]: > 50 mg/L; neutralization IC50 [31]: 0.005 mg/L; neutralization IC50 [32]: 0.06 mg/L; neutralization IC50 [33]: 0.021 mg/L; neutralization IC50 [34]: 0.032 mg/L; neutralization IC50 [35]: 2.94 mg/L
NIH45-46^G54F IgG (antibody) | 0.04 | 0.064 | > 50 | 0.022 | 5.82 | 0.32 | > 50 | 0.04 | > 50 | 0.017 | > 50 | 0.36 | 0.11 | 0.1 | 0.075 | 0.53 | 0.011 | 0.022 | 0.02 | > 50 | neutralization IC50 [21]: 0.59 mg/L; neutralization IC50 [22]: 0.008 mg/L; neutralization IC50 [23]: 0.03 mg/L; neutralization IC50 [24]: 0.03 mg/L; neutralization IC50 [25]: 0.03 mg/L; neutralization IC50 [26]: 0.005 mg/L; neutralization IC50 [27]: 0.04 mg/L; neutralization IC50 [28]: > 50 mg/L; neutralization IC50 [29]: 0.03 mg/L; neutralization IC50 [30]: > 50 mg/L; neutralization IC50 [31]: < 0.001 mg/L; neutralization IC50 [32]: 0.02 mg/L; neutralization IC50 [33]: < 0.001 mg/L; neutralization IC50 [34]: 0.011 mg/L; neutralization IC50 [35]: 0.28 mg/L
NIH45-46^G54W IgG (antibody) | 0.03 | 0.024 | 16.4 | < 0.001 | 1.47 | 0.01 | > 50 | 0.02 | > 50 | < 0.001 | > 50 | 0.2 | 0.04 | 0.07 | 0.036 | 0.04 | 0.01 | 0.005 | 0.027 | 3.65 | neutralization IC50 [21]: 0.45 mg/L; neutralization IC50 [22]: 0.003 mg/L; neutralization IC50 [23]: 0.02 mg/L; neutralization IC50 [24]: 0.01 mg/L; neutralization IC50 [25]: 0.009 mg/L; neutralization IC50 [26]: < 0.001 mg/L; neutralization IC50 [27]: 0.02 mg/L; neutralization IC50 [28]: 1.33 mg/L; neutralization IC50 [29]: < 0.001 mg/L; neutralization IC50 [30]: > 50 mg/L; neutralization IC50 [31]: < 0.001 mg/L; neutralization IC50 [32]: 0.01 mg/L; neutralization IC50 [33]: < 0.001 mg/L; neutralization IC50 [34]: 0.002 mg/L; neutralization IC50 [35]: 0.32 mg/L
NIH45-46^G54Y IgG (antibody) | 0.03 | 0.044 | > 50 | 0.025 | 17.9 | 0.3 | > 50 | 0.03 | > 50 | 0.011 | > 50 | 0.29 | 0.09 | 0.1 | 0.073 | 0.33 | 0.017 | 0.021 | 0.022 | > 50 | neutralization IC50 [21]: 0.59 mg/L; neutralization IC50 [22]: 0.012 mg/L; neutralization IC50 [23]: 0.04 mg/L; neutralization IC50 [24]: 0.02 mg/L; neutralization IC50 [25]: 0.023 mg/L; neutralization IC50 [26]: 0.007 mg/L; neutralization IC50 [27]: 0.04 mg/L; neutralization IC50 [28]: > 50 mg/L; neutralization IC50 [29]: 0.04 mg/L; neutralization IC50 [30]: > 50 mg/L; neutralization IC50 [31]: 0.002 mg/L; neutralization IC50 [32]: 0.03 mg/L; neutralization IC50 [33]: 0.006 mg/L; neutralization IC50 [34]: 0.013 mg/L; neutralization IC50 [35]: 0.42 mg/L
